Substitutions are numbered along the chain they refer to.
Key:
[1] = target: T1, VE-cadherin (wild type, mouse) (mouse (endogenous in lung of C57BL/6 …, UniProt P55284 46-784)); assay: co-IP
T1 sequence (looked up): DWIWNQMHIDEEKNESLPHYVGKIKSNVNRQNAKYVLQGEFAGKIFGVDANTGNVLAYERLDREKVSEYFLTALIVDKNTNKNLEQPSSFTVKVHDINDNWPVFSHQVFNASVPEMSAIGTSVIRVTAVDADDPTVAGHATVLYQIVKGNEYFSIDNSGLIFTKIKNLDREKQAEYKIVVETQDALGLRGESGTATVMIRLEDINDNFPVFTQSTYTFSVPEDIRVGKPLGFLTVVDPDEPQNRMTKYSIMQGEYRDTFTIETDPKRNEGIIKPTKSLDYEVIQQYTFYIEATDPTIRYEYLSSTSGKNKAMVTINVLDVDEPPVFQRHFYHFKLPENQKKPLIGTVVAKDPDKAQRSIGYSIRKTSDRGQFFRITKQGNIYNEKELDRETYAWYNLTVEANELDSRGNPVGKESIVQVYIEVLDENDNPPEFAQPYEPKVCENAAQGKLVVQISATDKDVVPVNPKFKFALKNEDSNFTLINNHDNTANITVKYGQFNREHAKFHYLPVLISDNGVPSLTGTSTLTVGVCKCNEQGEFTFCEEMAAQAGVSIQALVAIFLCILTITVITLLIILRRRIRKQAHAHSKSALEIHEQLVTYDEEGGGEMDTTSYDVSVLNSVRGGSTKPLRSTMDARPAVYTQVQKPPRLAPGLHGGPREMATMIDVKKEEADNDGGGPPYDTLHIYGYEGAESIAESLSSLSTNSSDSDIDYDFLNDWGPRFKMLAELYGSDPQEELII

[2] = target: T2, Y685F-VE-cadherin (knock-in mutant, mouse) (mouse (endogenous in lung of C57BL/6 …, UniProt P55284 46-784, Y685F)); assay: co-IP
T2 sequence (looked up): T1 sequence (looked up) with Y640F

B1: β-catenin (natural protein, UniProt Q02248 1-781, looked up)
chain: MATQADLMELDMAMEPDRKAAVSHWQQQSYLDSGIHSGATTTAPSLSGKGNPEEEDVDTSQVLYEWEQGFSQSFTQEQVADIDGQYAMTRAQRVRAAMFPETLDEGMQIPSTQFDAAHPTNVQRLAEPSQMLKHAVVNLINYQDDAELATRAIPELTKLLNDEDQVVVNKAAVMVHQLSKKEASRHAIMRSPQMVSAIVRTMQNTNDVETARCTAGTLHNLSHHREGLLAIFKSGGIPALVKMLGSPVDSVLFYAITTLHNLLLHQEGAKMAVRLAGGLQKMVALLNKTNVKFLAITTDCLQILAYGNQESKLIILASGGPQALVNIMRTYTYEKLLWTTSRVLKVLSVCSSNKPAIVEAGGMQALGLHLTDPSQRLVQNCLWTLRNLSDAATKQEGMEGLLGTLVQLLGSDDINVVTCAAGILSNLTCNNYKNKMMVCQVGGIEALVRTVLRAGDREDITEPAICALRHLTSRHQEAEMAQNAVRLHYGLPVVVKLLHPPSHWPLIKATVGLIRNLALCPANHAPLREQGAIPRLVQLLVRAHQDTQRRTSMGGTQQQFVEGVRMEEIVEGCTGALHILARDVHNRIVIRGLNTIPLFVQLLYSPIENIQRVAAGVLCELAQDKEAAEAIEAEGATAPLTELLHSRNEGVATYAAAVLFRMSEDKPQDYKKRLSVELTSSLFRTEPMAWNETADLGLDIGAQGEALGYRQDDPSYRSFHSGGYGQDALGMDPMMEHEMGGHHPGADYPVDGLPDLGHAQDLMDGLPPGDSNQLAWFDTDL
[1]
  β-catenin/VE-cadherin ratio in the VE-cadherin immunoprecipitate (densitometry): 1.14
[2]
  β-catenin/VE-cadherin ratio in the VE-cadherin immunoprecipitate (densitometry): 0.798
